Results on two molecules are retold here after article PMC11927175, “Global profiling of CPL3-mediated alternative splicing reveals regulatory mechanisms of DGK5 in plant immunity and phosphatidic acid homeostasis” (Genome Biology, 2025).

In assay [1] the target is T1, glutathione S-transferase (GST)-tagged BIK1 (BOTRYTIS-INDUCED KINASE 1) (Arabidopsis thaliana (Mouse-ear cress), UniProt O48814).
T1 chain: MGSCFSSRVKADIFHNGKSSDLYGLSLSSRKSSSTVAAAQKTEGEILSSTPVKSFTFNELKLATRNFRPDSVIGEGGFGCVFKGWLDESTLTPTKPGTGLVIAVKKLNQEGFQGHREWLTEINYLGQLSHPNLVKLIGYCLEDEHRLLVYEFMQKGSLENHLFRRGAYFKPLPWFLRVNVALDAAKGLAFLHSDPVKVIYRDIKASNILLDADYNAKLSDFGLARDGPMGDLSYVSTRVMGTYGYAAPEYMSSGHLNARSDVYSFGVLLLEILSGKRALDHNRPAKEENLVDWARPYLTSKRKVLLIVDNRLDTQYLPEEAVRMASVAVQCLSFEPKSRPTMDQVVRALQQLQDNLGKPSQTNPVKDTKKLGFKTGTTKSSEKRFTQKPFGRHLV
Nature of the assay: GST pull-down.

In assay [2] the target is T2, six histidine-tagged DGK5β (…OL KINASE 5, constitutive full-length isoform) (Arabidopsis thaliana, UniProt Q9C5E5 1-509).
T2 construct: …OL KINASE 5, isoform DGK5β, Arabidopsis thaliana, AT2G20900; printed size 57.4 kDa; Ser506 lies in the CBD; also called HIS-DGK5β; source: E. coli BL21, purified (Ni-NTA agarose)
T2 sequence (looked up): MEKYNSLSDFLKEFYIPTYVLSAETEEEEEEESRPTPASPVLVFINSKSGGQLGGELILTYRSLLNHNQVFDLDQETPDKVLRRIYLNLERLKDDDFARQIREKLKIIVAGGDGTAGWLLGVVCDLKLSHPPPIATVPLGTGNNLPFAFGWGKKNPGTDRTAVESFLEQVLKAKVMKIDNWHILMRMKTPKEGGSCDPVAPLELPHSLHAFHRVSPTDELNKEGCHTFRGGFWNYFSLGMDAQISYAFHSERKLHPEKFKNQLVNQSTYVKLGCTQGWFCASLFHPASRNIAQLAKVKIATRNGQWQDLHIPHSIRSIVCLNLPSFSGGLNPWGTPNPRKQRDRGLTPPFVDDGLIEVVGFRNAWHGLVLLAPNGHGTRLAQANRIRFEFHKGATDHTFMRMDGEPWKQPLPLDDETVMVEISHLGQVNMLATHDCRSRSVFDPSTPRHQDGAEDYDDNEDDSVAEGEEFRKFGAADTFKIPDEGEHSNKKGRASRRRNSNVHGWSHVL
Nature of the assay: pull-down; GST-BIK1 immobilised on glutathione agarose beads, blocked with BSA, incubated with 2 μg HIS-DGK5β or HIS-DGK5α in 300 μl incubation buffer (20 mM Tris-HCl pH 7.5, 100 mM NaCl, 0.1 mM EDTA, 0.2% Triton X-100) at 4 °C for 1 h; washed with 300 mM NaCl buffer; immunoblot with α-HIS and α-GST. Conditions: both partners purified.

B1: six histidine-tagged DGK5β (…OL KINASE 5, constitutive full-length isoform) (protein)
chain: MEKYNSLSDFLKEFYIPTYVLSAETEEEEEEESRPTPASPVLVFINSKSGGQLGGELILTYRSLLNHNQVFDLDQETPDKVLRRIYLNLERLKDDDFARQIREKLKIIVAGGDGTAGWLLGVVCDLKLSHPPPIATVPLGTGNNLPFAFGWGKKNPGTDRTAVESFLEQVLKAKVMKIDNWHILMRMKTPKEGGSCDPVAPLELPHSLHAFHRVSPTDELNKEGCHTFRGGFWNYFSLGMDAQISYAFHSERKLHPEKFKNQLVNQSTYVKLGCTQGWFCASLFHPASRNIAQLAKVKIATRNGQWQDLHIPHSIRSIVCLNLPSFSGGLNPWGTPNPRKQRDRGLTPPFVDDGLIEVVGFRNAWHGLVLLAPNGHGTRLAQANRIRFEFHKGATDHTFMRMDGEPWKQPLPLDDETVMVEISHLGQVNMLATHDCRSRSVFDPSTPRHQDGAEDYDDNEDDSVAEGEEFRKFGAADTFKIPDEGEHSNKKGRASRRRNSNVHGWSHVL
As to B1, the binding result in assay [1] is recorded as “binds”.

B2: glutathione S-transferase (GST)-tagged BIK1 (BOTRYTIS-INDUCED KINASE 1) (enzyme, Arabidopsis thaliana, UniProt O48814 1-395, looked up)
chain: MGSCFSSRVKADIFHNGKSSDLYGLSLSSRKSSSTVAAAQKTEGEILSSTPVKSFTFNELKLATRNFRPDSVIGEGGFGCVFKGWLDESTLTPTKPGTGLVIAVKKLNQEGFQGHREWLTEINYLGQLSHPNLVKLIGYCLEDEHRLLVYEFMQKGSLENHLFRRGAYFKPLPWFLRVNVALDAAKGLAFLHSDPVKVIYRDIKASNILLDADYNAKLSDFGLARDGPMGDLSYVSTRVMGTYGYAAPEYMSSGHLNARSDVYSFGVLLLEILSGKRALDHNRPAKEENLVDWARPYLTSKRKVLLIVDNRLDTQYLPEEAVRMASVAVQCLSFEPKSRPTMDQVVRALQQLQDNLGKPSQTNPVKDTKKLGFKTGTTKSSEKRFTQKPFGRHLV
notes: BOTRYTIS-INDUCED KINASE 1 (BIK1), receptor-like cytoplasmic kinase, Arabidopsis thaliana, AT2G39660; also called GST-BIK1; source: E. coli BL21, purified (glutathione agarose)
In the case of B2, the binding result in assay [2] was “binds”.
